No end group written: not given here.
B1: S. cerevisiae His6-Cdh1 (natural protein)
chain: MSTNLNPFMNNTPSSSPLKGSESKRVSKRPISSSSSASLLSSPSRRSRPSTVYGDRYIPSRTDIDFNSIVSISSMASVPALNPSSTEDQVEYQKERQAHETYNTLLKNELFGEMLSKDTVGSESSIDRIKNTRPSTRGNVHAENTTRHGYELERVSTPPPEAAGLEEFSPHSTPVTPRRLFTSQQDEITRPSSNSVRGASLLTYQQRKGRRLSAASLLQSQFFDSMSPVRPDSKQLLLSPGKQFRQIAKVPYRVLDAPSLADDFYYSLIDWSSTDVLAVALGKSIFLTDNNTGDVVHLCDTENEYTSLSWIGAGSHLAVGQANGLVEIYDVMKRKCIRTLSGHIDRVACLSWNNHVLTSGSRDHRILHRDVRMPDPFFETIESHTQEVCGLKWNVADNKLASGGNDNVVHVYEGTSKSPILTFDEHKAAVKAMAWSPHKRGVLATGGGTADRRLKIWNVNTSIKMSDIDSGSQICNMVWSKNTNELVTSHGYSKYNLTLWDCNSMDPIAILKGHSFRVLHLTLSNDGTTVVSGAGDETLRYWKLFDKPKAKVQPNSLIFDAFNQIR
B2: Apc3/Cdc27, TPR subunit in the S. cerevisiae APC/C (natural protein)
chain: MAVNPELAPFTLSRGIPSFDDQALSTIIQLQDCIQQAIQQLNYSTAEFLAELLYAECSILDKSSVYWSDAVYLYALSLFLNKSYHTAFQISKEFKEYHLGIAYIFGRCALQLSQGVNEAILTLLSIINVFSSNSSNTRINMVLNSNLVHIPDLATLNCLLGNLYMKLDHSKEGAFYHSEALAINPYLWESYEAICKMRATVDLKRVFFDIAGKKSNSHNNNAASSFPSTSLSHFEPRSQPSLYSKTNKNGNNNINNNVNTLFQSSNSPPSTSASSFSSIQHFSRSQQQQANTSIRTCQNKNTQTPKNPAINSKTSSALPNNISMNLVSPSSKQPTISSLAKVYNRNKLLTTPPSKLLNNDRNHQNNNNNNNNNNNNNNNNNNNNNNNNIINKTTFKTPRNLYSSTGRLTTSKKNPRSLIISNSILTSDYSITLPEIMYNFALILRSSSQYNSFKAIRLFESQIPSHIKDTMPWCLVQLGKLHFEIINYDMSLKYFNRLKDLQPARVKDMEIFSTLLWHLHDKVKSSNLANGLMDTMPNKPETWCCIGNLLSLQKDHDAAIKAFEKATQLDPNFAYAYTLQGHEHSSNDSSDSAKTCYRKALACDPQHYNAYYGLGTSAMKLGQYEEALLYFEKARSINPVNVVLICCCGGSLEKLGYKEKALQYYELACHLQPTSSLSKYKMGQLLYSMTRYNVALQTFEELVKLVPDDATAHYLLGQTYRIVGRKKDAIKELTVAMNLDPKGNQVIIDELQKCHMQE

Legend:
[1] = biological target: B1; assay: cryo-EM structure
[2] = biological target: APC/C in complex with Cdh1 (APC/C^Cdh1), budding yeast (S. cerevisiae) (UniProt P53886)
[3] = biological target: T1, Apc2, cullin subunit in the S. cerevisiae APC/C (S. cerevisiae, UniProt Q12440 1-853); assay: cryo-EM structure
T1 sequence: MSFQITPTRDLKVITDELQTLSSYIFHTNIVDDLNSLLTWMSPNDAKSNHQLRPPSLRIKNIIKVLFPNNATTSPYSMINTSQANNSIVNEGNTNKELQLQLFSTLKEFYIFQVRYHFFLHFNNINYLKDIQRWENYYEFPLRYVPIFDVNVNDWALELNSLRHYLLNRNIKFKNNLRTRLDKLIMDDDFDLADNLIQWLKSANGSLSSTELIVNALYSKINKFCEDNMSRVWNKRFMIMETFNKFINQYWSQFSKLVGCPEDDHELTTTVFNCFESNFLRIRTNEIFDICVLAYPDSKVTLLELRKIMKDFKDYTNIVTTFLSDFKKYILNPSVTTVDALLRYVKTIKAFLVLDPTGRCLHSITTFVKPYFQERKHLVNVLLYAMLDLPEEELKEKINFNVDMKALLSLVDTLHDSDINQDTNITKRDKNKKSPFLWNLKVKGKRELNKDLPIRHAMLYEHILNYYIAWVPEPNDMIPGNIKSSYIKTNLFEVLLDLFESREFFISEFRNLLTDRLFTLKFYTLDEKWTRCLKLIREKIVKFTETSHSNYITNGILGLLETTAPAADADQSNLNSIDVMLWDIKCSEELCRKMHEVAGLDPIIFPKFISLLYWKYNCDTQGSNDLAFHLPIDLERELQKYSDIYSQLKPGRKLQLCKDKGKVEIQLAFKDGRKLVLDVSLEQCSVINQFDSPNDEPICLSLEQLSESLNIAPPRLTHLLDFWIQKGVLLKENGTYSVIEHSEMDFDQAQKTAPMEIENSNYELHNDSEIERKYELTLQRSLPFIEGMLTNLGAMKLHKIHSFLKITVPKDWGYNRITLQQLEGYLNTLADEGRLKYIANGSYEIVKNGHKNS

[4] = biological target: B2; assay: cryo-EM structure
[5] = biological target: the molecule itself; assay: cryo-EM structure

NVPKKRHALDDVSNFHNK (not fully specified) [18-residue D-box peptide modelled on cyclin B (S. pombe Cdc13)]
binding result [1]: binds
inhibition of APC/C^Cdh1 ubiquitylation of Clb2 by the peptide [2]: 0.1 mM

B1
binding result [3]: binds
binding result [4]: binds

B2
binding result [5]: binds
